Measured values published in publication PMC6555819, “Comprehensive study of nuclear receptor DNA binding provides a revised framework for understanding receptor specificity”.

Target: RARb:RXRa (Homo sapiens, UniProt P10826;P19793 full;full)
Assay: no ligand; PBM; 270 nM : 90 nM RXRa; PBS pH 7.4, 2% milk, 0.02% Triton X-100, 1 mM DTT, BSA, 0.4 mg/ml salmon testes DNA
Settings: tags: His kept;His cleaved; copies: 1;1; label: surface-attached array probe
How it was run: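 Binding z-scores take random background probes as their reference. They come from custom Agilent 4×180K protein-binding microarrays incubated 1 h with ligand-free nuclear receptor dimers, with antibodies against each partner (one per run) detecting binding. Scanned fluorescence was regression-normalized.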

Sequence of RARb:RXRa (P10826 whole entry, chain 1 of 2): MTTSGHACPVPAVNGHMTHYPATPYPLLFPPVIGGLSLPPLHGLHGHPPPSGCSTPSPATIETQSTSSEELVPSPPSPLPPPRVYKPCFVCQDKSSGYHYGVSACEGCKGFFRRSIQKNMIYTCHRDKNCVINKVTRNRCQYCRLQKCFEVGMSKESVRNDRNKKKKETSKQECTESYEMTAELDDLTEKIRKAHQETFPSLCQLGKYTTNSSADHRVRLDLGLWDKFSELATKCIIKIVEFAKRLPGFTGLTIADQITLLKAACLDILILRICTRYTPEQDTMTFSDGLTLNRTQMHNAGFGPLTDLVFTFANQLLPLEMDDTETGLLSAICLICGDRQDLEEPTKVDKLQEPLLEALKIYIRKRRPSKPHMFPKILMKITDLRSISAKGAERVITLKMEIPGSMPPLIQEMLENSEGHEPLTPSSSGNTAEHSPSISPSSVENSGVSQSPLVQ
Sequence of RARb:RXRa (P19793 whole entry, chain 2 of 2): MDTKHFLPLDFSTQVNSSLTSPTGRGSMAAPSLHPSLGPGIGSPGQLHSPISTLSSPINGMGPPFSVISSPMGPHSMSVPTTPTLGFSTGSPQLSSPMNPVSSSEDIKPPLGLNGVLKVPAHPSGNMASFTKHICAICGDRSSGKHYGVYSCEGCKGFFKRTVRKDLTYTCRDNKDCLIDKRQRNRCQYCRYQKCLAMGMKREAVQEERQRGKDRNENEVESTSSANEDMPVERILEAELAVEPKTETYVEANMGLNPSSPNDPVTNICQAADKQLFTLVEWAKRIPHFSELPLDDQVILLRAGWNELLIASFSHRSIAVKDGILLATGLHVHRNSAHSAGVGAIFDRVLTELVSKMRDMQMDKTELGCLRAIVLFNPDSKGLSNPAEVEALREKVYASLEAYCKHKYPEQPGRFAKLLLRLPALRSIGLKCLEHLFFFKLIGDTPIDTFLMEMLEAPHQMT

B1: NRC3_wobSeed65_DR2_A5T_o1 (dsDNA)
DNA 1: GCATTTGTAGGTTATCGGGTCATTCAGTTTGCGCATGCGATTGACAGCGTAGAATGAAGG
DNA 2: CCTTCATTCTACGCTGTCAATCGCATGCGCAAACTGAATGACCCGATAACCTACAAATGC
  binding signal: 3 PBM z-score against 500 random probes

B2: NRC3_wobSeed114_DR4_T12A_o1 (dsDNA)
DNA 1: GCAATACAGGGACATCGTAGGCCAGAGTACGCACAGGCGATTGACAGCGTAGAATGAAGG
DNA 2: CCTTCATTCTACGCTGTCAATCGCCTGTGCGTACTCTGGCCTACGATGTCCCTGTATTGC
  binding signal: 0.47 PBM z-score against 500 random probes

B3: NRC3_wobSeed124_DR5_T23A_o1 (dsDNA)
DNA 1: GCCCTACTGGGCCATTCAGAGGACATTGATCATATGGCGATTGACAGCGTAGAATGAAGG
DNA 2: CCTTCATTCTACGCTGTCAATCGCCATATGATCAATGTCCTCTGAATGGCCCAGTAGGGC
  binding signal: 0.46 PBM z-score against 500 random probes

B4: NRC3_wobSeed30_DR1_G17A_o1 (dsDNA)
DNA 1: GCACTAGCAGGCCAAGAGTCACTCAAGATTAGTCCGGCGATTGACAGCGTAGAATGAAGG
DNA 2: CCTTCATTCTACGCTGTCAATCGCCGGACTAATCTTGAGTGACTCTTGGCCTGCTAGTGC
  binding signal: 0.46 PBM z-score against 500 random probes

B5: NRC3_wobSeed136_DR5_A14C_o1 (dsDNA)
DNA 1: GCTAGCCTAGGTCCTTCAGGGGCCAGTATAGAAAGCGCGATTGACAGCGTAGAATGAAGG
DNA 2: CCTTCATTCTACGCTGTCAATCGCGCTTTCTATACTGGCCCCTGAAGGACCTAGGCTAGC
  binding signal: 0.43 PBM z-score against 500 random probes

B6: NRC3_wobSeed28_DR1_A21C_o1 (dsDNA)
DNA 1: GCCCTACTGGGCCAAAGGTCCTTGATTCCAATGCTCGCGATTGACAGCGTAGAATGAAGG
DNA 2: CCTTCATTCTACGCTGTCAATCGCGAGCATTGGAATCAAGGACCTTTGGCCCAGTAGGGC
  binding signal: 0.42 PBM z-score against 500 random probes

B7: NRC3_wobSeed100_DR4_C23A_o1 (dsDNA)
DNA 1: GCCCTACTGGGCCACGAAAGGTAATTGATTCAGTGAGCGATTGACAGCGTAGAATGAAGG
DNA 2: CCTTCATTCTACGCTGTCAATCGCTCACTGAATCAATTACCTTTCGTGGCCCAGTAGGGC
  binding signal: 0.41 PBM z-score against 500 random probes

B8: NRC3_wobSeed34_DR1_A9T_o1 (dsDNA)
DNA 1: GCATCGAATGGTCGAAGGTGAGTATACCCACCCGAAGCGATTGACAGCGTAGAATGAAGG
DNA 2: CCTTCATTCTACGCTGTCAATCGCTTCGGGTGGGTATACTCACCTTCGACCATTCGATGC
  binding signal: 0.4 PBM z-score against 500 random probes

B9: NRC3_wobSeed21_DR0_A14T_o1 (dsDNA)
DNA 1: GCCGTCAAAGTTCTAGGTAACGTAACAGAAAGCAGCGCGATTGACAGCGTAGAATGAAGG
DNA 2: CCTTCATTCTACGCTGTCAATCGCGCTGCTTTCTGTTACGTTACCTAGAACTTTGACGGC
  binding signal: 0.4 PBM z-score against 500 random probes

B10: NRC3_wobSeed38_DR1_A14T_o1 (dsDNA)
DNA 1: GCCCTGCTAGGTCTATGGTCAGCTAAAGCAGCTCGCGCGATTGACAGCGTAGAATGAAGG
DNA 2: CCTTCATTCTACGCTGTCAATCGCGCGAGCTGCTTTAGCTGACCATAGACCTAGCAGGGC
  binding signal: 0.39 PBM z-score against 500 random probes

B11: NRC3_wobSeed16_DR0_C13G_o1 (dsDNA)
DNA 1: GCCAGCCTAGGTGAGGGCCAGTATAGGAGGAACGTTGCGATTGACAGCGTAGAATGAAGG
DNA 2: CCTTCATTCTACGCTGTCAATCGCAACGTTCCTCCTATACTGGCCCTCACCTAGGCTGGC
  binding signal: 0.33 PBM z-score against 500 random probes

B12: NRC3_wobSeed15_DR0_G11C_o1 (dsDNA)
DNA 1: GCCGAACTAGCTCAAGGACAGTGAATCTCCGCACGCGCGATTGACAGCGTAGAATGAAGG
DNA 2: CCTTCATTCTACGCTGTCAATCGCGCGTGCGGAGATTCACTGTCCTTGAGCTAGTTCGGC
  binding signal: 0.3 PBM z-score against 500 random probes

B13: NRC3_wobSeed76_DR3_G19T_o1 (dsDNA)
DNA 1: GCCCTACTGGGCCAAAAATGTCATTGATGCCGATAAGCGATTGACAGCGTAGAATGAAGG
DNA 2: CCTTCATTCTACGCTGTCAATCGCTTATCGGCATCAATGACATTTTTGGCCCAGTAGGGC
  binding signal: 0.29 PBM z-score against 500 random probes
